Data as given in patent US20080220459A1.

Molecular target: NC4-antiserum (rabbit polyclonal antiserum against the collagen alpha1 (IX) NC4-peptide coupled to KLH)
Test: inhibition ELISA: free NC4-peptide against binding of NC4-antiserum to solid-phase NC4-peptide

peptide concentration showing efficient inhibition of the binding: 0.3 ng/mL
Binder: H-CGQDDLPGFDLISQFQ-NH2 [NC4-peptide NH2-…^64-CONH2]
